Results published in patent US20150166628A1.

Target: cellular IGF-1 receptors (UniProt P24062)
Assay: cell-based or functional assay

Sequence of UniProt P24062 (P24062 31-1370): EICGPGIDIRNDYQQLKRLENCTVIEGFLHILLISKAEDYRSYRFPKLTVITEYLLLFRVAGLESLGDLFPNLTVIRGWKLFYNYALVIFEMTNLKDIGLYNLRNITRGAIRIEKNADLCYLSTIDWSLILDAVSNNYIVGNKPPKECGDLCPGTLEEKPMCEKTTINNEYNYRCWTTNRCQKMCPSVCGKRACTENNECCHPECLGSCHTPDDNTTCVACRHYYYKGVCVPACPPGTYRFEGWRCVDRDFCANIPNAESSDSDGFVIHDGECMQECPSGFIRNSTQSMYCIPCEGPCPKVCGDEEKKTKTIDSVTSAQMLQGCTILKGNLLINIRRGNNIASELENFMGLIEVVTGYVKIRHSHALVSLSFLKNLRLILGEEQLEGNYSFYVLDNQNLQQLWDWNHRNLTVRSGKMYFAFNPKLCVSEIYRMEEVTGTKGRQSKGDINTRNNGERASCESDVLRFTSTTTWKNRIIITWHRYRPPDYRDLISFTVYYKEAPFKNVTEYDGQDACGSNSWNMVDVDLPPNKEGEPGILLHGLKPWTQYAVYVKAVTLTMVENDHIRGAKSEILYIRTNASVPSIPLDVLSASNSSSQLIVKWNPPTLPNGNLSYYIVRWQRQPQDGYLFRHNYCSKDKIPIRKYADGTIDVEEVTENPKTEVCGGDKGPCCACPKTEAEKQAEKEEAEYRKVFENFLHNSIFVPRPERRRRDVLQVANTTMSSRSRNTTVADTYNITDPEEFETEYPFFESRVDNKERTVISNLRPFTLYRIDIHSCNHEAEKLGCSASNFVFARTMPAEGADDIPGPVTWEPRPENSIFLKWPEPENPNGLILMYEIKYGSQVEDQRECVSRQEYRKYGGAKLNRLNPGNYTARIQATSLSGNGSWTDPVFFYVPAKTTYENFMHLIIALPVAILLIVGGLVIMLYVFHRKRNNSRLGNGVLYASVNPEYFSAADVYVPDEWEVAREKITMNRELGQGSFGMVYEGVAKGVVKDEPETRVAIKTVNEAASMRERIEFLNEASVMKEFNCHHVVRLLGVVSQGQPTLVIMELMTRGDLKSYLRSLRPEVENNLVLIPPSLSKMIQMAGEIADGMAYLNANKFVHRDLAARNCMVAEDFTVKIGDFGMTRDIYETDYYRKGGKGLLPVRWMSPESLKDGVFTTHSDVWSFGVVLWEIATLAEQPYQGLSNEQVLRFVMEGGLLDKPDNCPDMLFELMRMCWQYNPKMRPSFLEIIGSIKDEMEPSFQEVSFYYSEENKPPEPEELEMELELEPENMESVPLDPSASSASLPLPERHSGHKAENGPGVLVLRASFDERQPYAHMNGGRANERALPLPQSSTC

sulfate incorporation into meniscal cartilage, normalized to saline injection, four days after injection (fold of saline): 1.82 | sulfate incorporation into meniscal cartilage, normalized to saline injection, two days after injection (fold of saline): 2.1
Substance: HB-IGF-1 fusion protein (heparin-binding domain of human HB-EGF with a single cysteine-to-serine mutation fused to the amino-terminus of a mature IGF-1 protein) (from UniProt P05019 49-118)
